# Source: patent publication US7186697
# Biological target: recombinant HIV-1 gp120 (American Biotechnology, Inc.) (HIV-1)
# Test: ELISA on gp120-coated plates, culture medium
substance,measurement,value
Fab105-Protamine fusion protein (from UniProt P04553 1-51),binding activity against HIV gp120 in culture medium (µg/ml/24 hours),0.1
